# B1: wild-type MORC2 901-1032 with Trx-tag [human] / itself (parent)
# chain: LSTNHETIDLLVQILRNCLRYFLPPSFPISKKQLSAMNSDELISFPLKEYFKQYEVGLQNLCNSYQSRADSRAKASEESLRTSERKLRETEEKLQKLRTNIVALLQKVQEDIDINTDDELDAYIEDLITKGD
# Variants of: B1
# Test: static light-scattering (SLS) coupled to size-exclusion chromatography
# Details: with itself; Trx tag (14 kDa) kept on constructs
row,molecular mass [kDa],Variant
1,113,chain 1 F22Q
2,79.8,chain 1 L11Q
